Test results reported in US20080058278A1, “ATTENUATION OF HYPEROXIA-INDUCED CELL DEATH WITH MITOCHONDRIAL ALDEHYDE DEHYDROGENASE” (THE CHILDREN'S MERCY HOSPITAL, priority 2006, published 2008).

B1: mtALDH: human mitochondrial aldehyde dehydrogenase (SEQ ID NO. 3) overexpressed as V5 fusion protein in A549 cells by pcDNA3.1 plasmid transfection (protein, listed as Homo sapiens)
chain: MLRAAARFGPRLGRRLLSAAATQAVPAPNQQPEVFCNQIFINNEWHDAVSRKTFPTVNPSTGEVICQVAEGDKEDVDKAVKAARAAFQLGSPWRRMDASHRGRLLNRLADLIERDRTYLAALETLDNGKPYVISYLVDLDMVLKCLRYYAGWADKYHGKTIPIDGDFFSYTRHEPVGVCGQIIPWNFPLLMQAWKLGPALATGNVVVMKVAEQTPLTALYVANLIKEAGFPPGVVNIVPGFGPTAGAAIASHEDVDKVAFTGSTEIGRVIQVAAGSSNLKRVTLELGGKSPNIIMSDADMDWAVEQAHFALFFNQGQCCCAGSRTFVQEDIYDEFVERSVARAKSRVVGNPFDSKTEQGPQVDETQFKKILGYINTGKQEGAKLLCGGGIAADRGYFIQPTVFGDVQDGMTIAKEEIFGPVMQILKFKTIEEVVGRANNSTYGLAAAVFTKDLDKANYLSQALQAGTVWVNCYDVFGAQSPFGGYKMSGSGRELGEYGLQAYTEVKTVTVKVPQKNS
modifications: V5 tag

Experiments:
Neo-A549 cells [1] = conditions: 10 μM inhibitor pretreatment 30 minutes, 48-hour hyperoxic exposure (95% O2, 5% CO2)
Method: Cell culture and Cell Treatment: A549 cells were purchased from American Type culture collection (ATCC, Manassas, Va.) and grown in Dulbecco's Modified Eagle Medium (DMEM) containing 10% fetal bovine serum, 50 μg/mL penicillin and 50 μg/mL streptomycin in 5% CO2 at 37° C. Normoxic exposure of the cells was conducted under room air and 5% CO2 in a humidified cell culture incubator at 37° C. Hyperoxic exposure of the cells was conducted in a humidified chamber (Billups and Rothenberg, Del Mar, Calif.) and the chamber was flushed with 95% O2, 5% CO2 (hyperoxia) at a flow rate of 10 liters per minute for 15 minutes prior to incubation at 37° c. In U0126 and LY294002 pretreatment experiments, cells were treated with or without 10 μM U0216 or LY294002 (two well-known inhibitors) for 30 minutes prior to normoxic or hyperoxic exposure.
The lactate dehydrogenase (LDH) assay kit was from Biovision (Mountain View, Calif.) and LDH activity was measured per manufacture's instruction. Briefly, cells were incubated in an incubator (5% CO2, 37° C.) for the appropriate time of treatment. The cultured media were collected and saved. […] The absorbance of all samples at 490 nm was measured using a microplate reader. The cytotoxicity was determined by the percentage of LDH activity in cultured medium over combined LDH activities of the cultured medium and cell lysate.

mtALDH-A549 cells [2] = format: cell-based; conditions: 10 μM inhibitor pretreatment 30 minutes, 48-hour hyperoxic exposure (95% O2, 5% CO2)
From the text: (§1) Plasmid Construction and Transfection: For human mt ALDH plasmid construction, full-length human mtALDH cDNA without stop codon was amplified from a human lung cDNA library (Clontech, Mountain View Calif.) by RT-PCR using following primers, sense: […] (SEQ ID NO. 1), antisense: […] (SEQ ID NO. 2). The resulting human mtALDH cDNA was subcloned into the plasmid vector pcDNA3.1 (Invitrogen, Carlsbad, Calif.). The mtALDH sequence (SEQ ID NO. 3) was confirmed by direct nucleotide sequencing. mtALDH-pcDNA3 and empty pcDNA3.1 plasmids were transfected into A549 cells using LipofectAMINE (Invitrogen, Carlsbad, Calif.). The transfected cells were then selected by G418 sulfate at 500 μg/mL for ten days. A single clone was selected by limited dilution and mtALDH protein expression was confirmed by Western blotting with anti-V5 antibody (Invitrogen, Carlsbad, Calif.).
(§2) The cultured media were collected and saved.

mtALDH-A549 cells [3] = experiment: Necrotic cell death, trypan blue exclusion assay; format: cell-based, human; conditions: for necrotic cell death (percentage of stained cells to total cells): mtALDH-A549 cells, 10 μM inhibitor pretreatment 30 minutes; for necrotic cell death, trypan blue exclusion: mtALDH overexpression (mtALDH-A549)
From the text: as §1, §2

Neo-A549 cells [4] = experiment: Necrotic cell death, trypan blue exclusion assay; format: cell-based, human; conditions: 10 μM inhibitor pretreatment 30 minutes
From the text: as §2

mtALDH-A549 cells [5] = experiment: Intracellular and mitochondrial ROS levels by flow cytometry; format: cell-based, human
Method: Assessment of Intracellular and Mitochondrial ROS Levels: After normoxic or hyperoxic treatment, cultured cells were stained with 10 μM of 2′,7′-dicholordihydrofluorescein diacetate, succinimidyl ester (OxyBURST® Green H2DCFDA (2′,7′-dichlorodihydrofluorescin diacetate)), SE, Molecular Probe, Oreg.) for 10 minutes. The stained cells were washed three times with PBS and then trypsinized with 0.025% trypsin and 0.05% EDTA. The resuspended cells were subjected to fluorescent intensity measured by flow cytometry. For mitochondria-derived ROS measurement, cells were incubated with 10 μM dihydrorhodamaine 123 (Molecular Probe, OR) for 15 minutes. The stained cells were washed three times with PBS and then trypsinized with 0.25% trypsin, 0.05% EDTA. The resuspended cells were subjected to rhodamine 123 fluorescent intensity measurement by flow cytometry. Statistical Analysis: The results are expressed as the mean±SEM of data obtained from two or more experiments; or where appropriate, as mean±SD. Statistical analysis was performed using the student t test for paired comparisons and ANOVA for multiple comparisons. A value of p<0.05 was considered significant.

mtALDH = target: T1, mtALDH (Homo sapiens, UniProt P05091); experiment: mtALDH activity assay (NADH formation at 340 nm); format: cell-based; conditions: cell homogenate supernatant, p<0.01, n=6
T1 construct: endogenous in cells; host or cells: A549 human lung type II epithelial cells (isolated mitochondrial protein or cell homogenate supernatant)
T1 sequence (P05091 18-517): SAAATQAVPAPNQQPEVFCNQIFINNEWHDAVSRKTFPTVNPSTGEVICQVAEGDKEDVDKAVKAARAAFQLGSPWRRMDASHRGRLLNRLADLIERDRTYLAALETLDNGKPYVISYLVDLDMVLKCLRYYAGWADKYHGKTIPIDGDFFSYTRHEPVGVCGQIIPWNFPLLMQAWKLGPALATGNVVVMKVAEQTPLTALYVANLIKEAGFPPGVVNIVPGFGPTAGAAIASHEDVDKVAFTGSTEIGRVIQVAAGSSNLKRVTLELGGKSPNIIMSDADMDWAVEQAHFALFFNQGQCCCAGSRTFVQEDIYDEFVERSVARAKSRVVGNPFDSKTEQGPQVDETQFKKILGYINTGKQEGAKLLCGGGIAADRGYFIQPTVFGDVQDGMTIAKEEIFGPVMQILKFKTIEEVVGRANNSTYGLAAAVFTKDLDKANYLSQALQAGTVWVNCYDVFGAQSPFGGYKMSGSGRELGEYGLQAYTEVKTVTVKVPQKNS
Method: mtALDH Activity Assay: mtALDH activity was measured as described previously (9). Neo-A549 and mtALDH A549 cells cultured on plates were collected in buffer of 50 mM Tris-HCl, pH 8.5. Resuspended cells were sonicated at setting 4 for 5 seconds by VirSonic sonicator from VirTis (Gardiner, N.Y.). The cell homogenates were centrifuged at 12,000×g for 10 minutes. The supernatants were saved and protein concentration was determined. Mitochondria were isolated from cultured cells using a mitochondria isolation kit from Pierce (Rockford, Ill.). The enzyme activity assay was carried out in 100 μL of 50 mM Tris-HCl, pH 8.5 containing 50 μg prepared protein, 15 μM propionaldehyde, 1 mM NAD and 1 mM 4-methylpyrazole. The ALDH activity was determined by spectrometer for NADH formation at 340 nm.

mtALDH-A549 cells [6] = experiment: Apoptotic cell death, Annexin V staining and flow cytometry; format: cell-based, human; conditions: mtALDH overexpression (mtALDH-A549), 48-hour hyperoxic treatment; Neo-A549 0.84%
Method: Analysis of Apoptotic Cells: The Apoptosis Detection kit was from R&D System (Minneapolis, Minn.). Treated cells were trypsinized and collected by centrifugation at 500×g for 5 minutes. Cells were washed with cold PBS once and resuspended in 100 uL binding buffer containing 10 mM HEPES pH 7.4, 150 mM NaCl, 5 mM KCl, 1 mM MgCl2 and 1.8 mM CaCl2. Cells were stained with Annexin V-FITC (0.05 μg per sample) for 15 minutes according to manufacturer's instructions. The stained cells were then subjected to flow cytometry analysis.

Akt = Akt phosphorylation and total Akt, Western blotting; format: cell-based, human
Method: (§3) Western Blotting Analysis: Antibodies were purchased from Cell Signaling Technology (Beverly, Mass.) and they were used according to manufacturer's instructions. Cultured cells after treatment were washed with cold PBS three times, and the 300 μl of sample lysis buffer (62.5 mM Tris-HCl pH 6.8, 2% w/v SDS, 10% glycerol, 200 mM dithiothreitol, and protease cocktails) was added to each plate. Cell lysates were centrifuged at 12,000×g for 10 minutes. The supernatants were saved for analysis. Protein concentration was determined by bicinchoninic acid (BCA) protein assay kit (Sigma, St. Louis, Mo.). Samples containing 50 μg of protein in loading sample buffer were boiled for 5 minutes and loaded on 12% Tris-Glycine SDS-PAGE gels. Gels were run at 120 V for approximately two hours and transferred overnight at 20 V to nitrocellulose membranes. Membranes were incubated with the blocking buffer containing 5% non-fat mile in PBST (0.1% Tween-20 in PBS) for one hour, washed with PBST and incubated overnight with the primary antibody against either phosphorylated ERK or phosphorylated Akt (Ser473). The membranes were washed in PBST and proteins were visualized using horseradish peroxidase (HRP)-conjugated anti-rabbit IgG and the enhanced chemiluminescence (Amersham Bioscience, Piscataway, N.J.). The membranes were stripped using a standard stripping solution (62.5 mM Tris-HCl, pH 6.8, 2% SDS and 100 mM β-mercaptoethanol) at 50° C., and reprobed with nonphosphorylated ERK, nonphosphorylated Akt and β-actin antibodies. Phosphorylated ERK and phosphorylated Akt protein band intensities on autoradiogram were analyzed with Image-Quant (Molecular Dynamics, Sunnyvale, Calif.) and normalized by nonphosphorylated ERK, nonphosphorylated Akt or β-actin in the same sample, respectively.

ERK = ERK phosphorylation, Western blotting; format: cell-based, human; conditions: 48-hour normoxic conditions, normalized by total ERK
Method: as §3, with “The membranes were washed in PBST and proteins were visualized using horseradish peroxidase (HRP)-conjugated anti-rabbit IgG and the enhanced chemiluminescence (Amersham Bioscience, Piscataway, N.J.). The membranes were stripped using a standard stripping solution (62.5 mM Tris-HCl, pH 6.8, 2% SDS and 100 mM β-mercaptoethanol) at 50° C., and reprobed with nonphosphorylated ERK, nonphosphorylated Akt and β-actin antibodies.” left out

[7] = 48-hour hyperoxic exposure (95% O2, 5% CO2)

Molecule	necrotic cell death (LDH cytotoxicity) (Neo-A549 cells [1]) [%]	necrotic cell death (LDH cytotoxicity) (mtALDH-A549 cells [2]) [%]	necrotic cell death (percentage of stained cells to total cells) (mtALDH-A549 cells [3]; [7]) [%]	necrotic cell death (percentage of stained cells to total cells) (mtALDH-A549 cells [3]; 48-hour normoxic exposure) [%]	necrotic cell death (percentage of stained cells to total cells) (Neo-A549 cells [4]; [7]) [%]	necrotic cell death (percentage of stained cells to total cells) (Neo-A549 cells [4]; 48-hour normoxic exposure) [%]	intracellular ROS level (H2DCFDA staining) (mtALDH-A549 cells [5]; 24-hour hyperoxia)	intracellular ROS level versus Neo-A549 cells (mtALDH-A549 cells [5]; 24-hour hyperoxia, p<0.001)	mitochondrial ROS level (dihydrorhodamine 123) versus Neo-A549 cells (mtALDH-A549 cells [5]; 24-hour hyperoxic exposure, p<0.001)	total mtALDH activity in mtALDH-A549 cells compared to Neo-A549 cells (mtALDH)	apoptotic cell death (Annexin V positive cells) (mtALDH-A549 cells [6]) [%]	Akt phosphorylation in mtALDH-A549 cells versus Neo-A549 cells (Akt; 0, 24 and 48-hour hyperoxic exposure)	phosphorylated Akt level in mtALDH-A549 cells versus Neo-A549 cells (Akt; first 24-hour culture under normoxic conditions)	total Akt in mtALDH-A549 cells compared to Neo-A549 cells (Akt; prior to hyperoxic treatment (0 hour))	ERK phosphorylation in mtALDH-A549 cells compared to Neo-A549 cells (ERK)	necrotic cell death, trypan blue exclusion (mtALDH-A549 cells [3]; 24-hour hyperoxic exposure, Neo-A549 25.3%) [%]	necrotic cell death, trypan blue exclusion (mtALDH-A549 cells [3]; 48-hour hyperoxic exposure, Neo-A549 50.5%) [%]	necrotic cell death, trypan blue exclusion (mtALDH-A549 cells [3]; 72-hour hyperoxic exposure, Neo-A549 52.4%) [%]
N#CC(=C(/N)Sc1ccccc1N)/C(C#N)=C(\N)Sc1ccccc1N [U0126]	14.1	9.4	26.0	11.6	44.5	12.6	–	–	–	–	–	–	–	–	–	–	–	–
O=c1cc(N2CCOCC2)oc2c(-c3ccccc3)cccc12 [LY294002]	–	–	28.0	4.3	86.6	9.0	–	–	–	–	–	–	–	–	–	–	–	–
B1	–	–	–	–	–	–	increased only approximately two fold	significantly decreased	significantly decreased	increased more than two fold	0.48	2-3 times	two-fold higher	about 1.8 fold	seven-fold increase	6.5	9.1	15.1
